Reference: paper PMC11742427, “Structural basis for metal ion transport by the human SLC11 proteins DMT1 and NRAMP1” (Nature Communications, 2025)
Values belong to the binder of their own block, whether it stands above or below them.

Tests used:
human DMT1 (SLC11A2) [1] = target: T1, human DMT1 (SLC11A2) (human, UniProt P49281-3 2-590, chemically biotinylated (EZ-Link NHS-PEG4-Biotinylation kit) for the SPR experiments); test: SPR; chemically biotinylated DMT1 or NRAMP1 immobilised on a SAD200M chip (about 900 RU); sybodies injected at 7.8-500 nM, 10 °C, 30 µl/min; 10 mM HEPES pH 7.4, 150 mM NaCl, 0.04% DDM, 0.004% CHS, 0.1% BSA; fit to a 1:1 binding model; conditions: both partners purified
T1 construct: human DMT1 (SLC11A2), UniProt P49281-3; Tags follow an HRV-3C site and were removed with HRV 3C protease; The same construct was used without biotin for the SEC of the complexes; source: HEK293S GnTI- cells, transient transfection, purified in DDM/CHS (StrepTactin, SEC); not shown: Myc, C-terminal, cleaved
T1 sequence: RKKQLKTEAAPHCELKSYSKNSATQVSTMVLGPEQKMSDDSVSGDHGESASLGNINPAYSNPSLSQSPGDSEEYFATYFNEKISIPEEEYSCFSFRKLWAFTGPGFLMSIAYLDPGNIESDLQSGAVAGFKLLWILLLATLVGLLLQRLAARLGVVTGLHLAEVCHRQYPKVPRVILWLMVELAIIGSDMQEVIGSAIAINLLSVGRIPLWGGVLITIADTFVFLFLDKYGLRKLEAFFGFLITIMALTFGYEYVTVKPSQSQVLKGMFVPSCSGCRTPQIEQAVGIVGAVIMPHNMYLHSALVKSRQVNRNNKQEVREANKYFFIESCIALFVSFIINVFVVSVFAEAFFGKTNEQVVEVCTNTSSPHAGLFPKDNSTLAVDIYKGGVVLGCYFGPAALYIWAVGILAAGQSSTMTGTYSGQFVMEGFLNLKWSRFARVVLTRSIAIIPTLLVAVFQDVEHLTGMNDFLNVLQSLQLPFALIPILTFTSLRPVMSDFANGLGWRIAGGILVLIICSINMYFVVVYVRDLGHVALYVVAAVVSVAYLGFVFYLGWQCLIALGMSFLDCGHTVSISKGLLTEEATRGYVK

human DMT1 (SLC11A2) [2] = target: T2, human DMT1 (SLC11A2) (Homo sapiens, DMT1 isoform 3 (P49281-3), UniProt P49281-3, chemically biotinylated (EZ-Link NHS-PEG4-Biotinylation kit) for the SPR assay; not for cryo-EM); test: SPR; chemically biotinylated DMT1 or NRAMP1 immobilised on a SAD200M chip (~900 RU); sybodies injected at 7.8-500 nM, 10 °C, 30 µl/min; 10 mM HEPES pH 7.4, 150 mM NaCl, 0.04% DDM, 0.004% CHS, 0.1% BSA; single-site binding model; conditions: both partners purified
T2 construct: human DMT1 (SLC11A2), UniProt identifier P49281-3, codon-optimised synthetic gene in pcDXC3MS; The C-terminal HRV-3C site was cut, so residues of the cleavage site are left on the C-terminus; One construct was used for SPR (biotinylated, immobilised) and cryo-EM; source: HEK293S GnTI- cells, transient transfection, purified in DDM/CHS (StrepTactin, HRV 3C cleavage, SEC); not shown: Myc, …

Kd (human DMT1 (SLC11A2) [1]): 48 nM
B1: sybody Sb2^DMT1 (VHH)
VHH: QVQLVESGGGLVQAGGSLRLSCAASGFPVNAAWMHWYRQAPGKEREWVAAIRSAGHLTEYADSVKGRFTISRDNAKNTVYLQMNNLKPEDTAVYYCWVYVGESYHGQGTQVTVSA
notes: synthetic nanobody (sybody) selected against DMT1; the tags are surmised from the vector; Not resolved in the maps of PDB 9F6N and 9F6O

Kd (human DMT1 (SLC11A2) [1]): 55 nM
B2: sybody Sb1^DMT1 (VHH)
VHH: QVQLVESGGGLVQAGGSLRLSCAASGFPVSRSEMYWYRQAPGKEREWVAAIHSIGWNTRYADSVKGRFTISRDNAKNTVYLQMNSLKPEDTAVYYCNVKDAGWFWTNYDYWGQGTQVTVSA
notes: synthetic nanobody (sybody) selected against DMT1; the tags are surmised from the vector

Kd (human DMT1 (SLC11A2) [2]): ~50 nM
B3: Sb1^DMT1 (sybody, synthetic nanobody selected against DMT1) (VHH)
VHH: B2 VHH
notes: Selected from synthetic nanobody (sybody) libraries; The sybody model PDB 7P5V was only the starting model for building Sb1, not Sb1 itself
